Results on 25 sequences are retold here after the DeepSol protein solubility set.

A short description of this data set: soluble on expression in E. coli; label from the status in PepcDB or PDB records.
“DNKINIGLAVMKILESWGADTIYGIPSGTLSSLMDAMGEEENNVKFLQVKHEEVGAMAAVMQSKFGGNLGVTVGSGGPGASHLINGLYDAAMDNIPVVAILGSRPQRELNMDAFQELNQNPMYDHIAVYNRRVAYAEQLPKLVDEAARMAIAKRGVAVLEVPGDFAKVEIDNDQWYSSANSLRKYAPIAPAAQDIDAAVELLNNSKRPVIYAGIGTMGHGPAVQELARKIKAPVITTGKNFETFEWDFEALTGSTYRVGWKPANETILEADTVLFAGSNFPFSEVEGTFRNVDNFIQIDIDPAMLGKRHHADVAILGDAALAIDEILNKVDAVEESAWWTANLKNIANWREYINMLETKEEGDLQFYQVYNAINNHADEDAIYSIDVGNSTQTSIRHLHMTPKNMWRTSPLFATMGIAIPGGLGAKNTYPDRQVWNIIGDGAFSMTYPDVVTNVRYNMPVINVVFSNTEYAFIKNKYEDTNKNLFGVDFTDVDYAKIAEAQGAKGFTVSRIEDMDRVMAEAVAANKAGHTVVIDCKITQDRPIPVETLKLDSKLYSEDEIKAYKERYEAANLVPFREYLEAEGLESKYIK”: the “soluble on expression in E. coli” value is on record as “soluble”.
The same measure for “MRQKLGNTDQAADLVQDTFIKLLQTRDELFGIKEPRAYLTSIAKNLLIDQVRRKRIEQAYLDGLSQMKYMLDAVASPEDQMQIIQAINQLCKALEGVSEKAQQAFILHYLEGYTHKEIAERLNVSTKMIQKYLASCLIQCYQNRQDMDACI”: “not soluble”; for “MIMQKRLLNRNSSVVKSRNCLARHQHESSISKLHVSLRLHRCLRPIVRFDFLHNAGSKVCSQNSCPSPQLHVGTMALFHTVFILWPHFCGILWTVHEKLYNYLLSIEVY”: “soluble”; for “GPGYQDPKGRLYGTIGIQKRFYVSIDKIPEHVINAFVATEDRNFWHHFGIDPVAIVRAAIVNYRAGRIVQGGSTITQQLAKNLFLTRERTLERKIKEALLAIKIERTFDKKKIMELYLNQIYLGSGAYGVEAAAQVYFGKHVWELSLDEAALLAALPKAPAKYNPFYHPERALQRRNLVLKRMLEEGYITPEQYEEAVNK”: “soluble”.
As for “MSALTLKGTSYKMCTDKMSFVKNPTDTGHGTVVMQVKVPKGAPCKIPVIVADDLTAAINKGILVTVNPIASTNDDEVLIEVNPPFGDSYIIVGTGDSRLTYQWHKEGSSIGK”, the “soluble on expression in E. coli” value is recorded as “soluble”.
“MGHHHHHHSHMYAAGLGMLEPTKEPLKPLSAAEKIASIGQTATMSPDMNTCTSDQFQESLPPVQFDWSSSGLTNPLDGVDPELYELTTSKLEISTSSLKVTDAFARLMSTVEKTSTSTSRKPKREEHLSEEAIKVIAGLPDLTFMHAKVLMFPATLTPSTSSQEKADG”: the “soluble on expression in E. coli” value is reported as “not soluble”.
Next, “MLGAIAYTGNKQSLLPELKSHFPKYNRFVDLFCGGLSVSLNVNGPVLANDIQEPIIEMYKRLINVSWDDVLKVIKQYKLSKTSKEEFLKLREDYNKTRDPLLLYVLHFHGFSNMIRINDKGNFTTPFGKRTINKNSEKRFNHFKQNCDKIIFSSLHFKDVKILDGDFVYVDPPYLITVADYNKFWSEDEEKDLLNLLDSLNDRGIKFGLSNVLEHHGKENTLLKEWSKKYNVKHLNKKYVFNIYHSKEKNGTDEVYIFN”: “soluble”.
With “MYTLREPYKGYEVKVTLLPIEDIVIPPIQRDLSETLIKKLMLSIEKVGFVDPILVVEGEEGKYEVINGQHRLKAAELLGIREIPAIILPQETKDYIISLNVEKAPNLKDKAHQAYEIFMKYLKENPEMEEVELENMVEEPYFLTVGFITDRFGEKRFPAYAFEKVLKKVDEFLGLPLEEAERERENRANVLRDVREVMEEKYQELGLTNALHKEAIISKAFQSVYGKRVRKVDDDFYTVFEKIKEAIPRVSFTEEELESF”, the “soluble on expression in E. coli” value is given as “soluble”.
Next, “MGHHHHHHSHMPVIQTESEHKPPVNGSYFAHVNPADGGCLLEKYSEKCHDFQCALLANLFASEGQPGKVIEVKAKRRTGPLNFVTCMRETLEKHYGNKPIGMGGTFIIQKGKVKSHIMPAEFSSCPLNSDEEVNKWLHFYEMKAPLVCLPVFVSRDPGFDLRLEHTHFFSRHGEGGHYHYDTTPDIVEYLGYFLPAEFLYRIGQPKETHSIGRD”: “not soluble”.
The same measure for “MSLTLTIEEIAKTKKLLVVSDFDGTIAGFSKDAYNVPINQKSLKAVKDLSQQADTDVVILSGRHLEGLKTVLDLGQYDITMVGSHGSEDSSRPRTLTPEEVARLAKIEADLEKIVDGIEGAFVEIKPFHRVLHFIRVSDKDKVQGILAQAAHVDSSGLKVTNGKSIIEYSISSTTKGTWLKEYVDRTEPTGVIFLGDDTTDEHGFKALENDDRALTVKVGEGDTAAKTRVDDVDNVGIFLEKLAYHRMQYAESVRLGEGHHHHHH”: “soluble”.
The same measure for “MGSDKIHHHHHHMNILEYENYHEDKTHVELTFPYNTYLCSIPLDFSGVPLHWHDDMELIYIKKGCGHISVDFKEYHVTAPSLVLILPGQLHSIDQYMDESMEYENIIFSLSMLLPGKYDYTKEDFLTPLLAGRFTVPTVFTPVYPYYEDVVAPIDACDEICKTMPQGYQLYIKSKLYEFFFVLDNRCRNLTKPLKSKKTLDKMKVVLKYVENNYADKISIADIADVAGFSESHFMRYFKETMGTSFVDYLKDYRLTMAARLLQSSDSSVLSISGEVGFESLSYFNRAFKKHYGMTPLQYRKGS”: “not soluble”.
As to “MNYFGKLQIRFSKSFLLLLIVSSLTACVDLTGARNTYIKKEKQPAISDVPNKKSKAQNMSSKKGEVHTMLGGLGIFSKGMYTLRDKVSEKYHITAHSTMWYNAGAVSRYIIDHYYQEKDHKPIILVGHSLGANEQIKVARNLNAAGVPVALLVTVDAVSQTIVPPNVKQALNVYKPGFVPMFSGLKLRAVDPQLTKIDNINVDSIKGIKVNHFTIDKDEILQAMIMDKVDKVLVDGNKKGA”, the “soluble on expression in E. coli” value was “not soluble”.
“MGSDKIHHHHHHMKRIGIIAAWQPELNYLHEEYPSRKVRKIAAWEFHYHSINNLEIISVISGVGKTNCSSCTQLLISEFRPDEIYMTGICGSLSDSIKGGEIVIARQMLQHDVTNAGKGDDVWDLYTGRTSIIDGDNSIFSDFLNFAINTSEHKINNGMFISGDQRIREDVLRSSLSSTHNAIAVDQEIASFSYVSYVNKIPFLCVKSVSDQADNKTIEDQKRFKLLACENSCKLLIEFLLR”: the “soluble on expression in E. coli” value is given as “not soluble”.
Next, “GMDTRKLLLTAQEISRMKGEHKVHFLNPGAVRVNKSLGDAVGLRHMGIHLIQIEPGKESTEYHLHHYEEEAVYVLSGKGTLTMENDQYPIAPGDFVGFPCHAAAHSISNDGTETLVCLVIGQRLDQDVVDYPNQHKRLYRNNGEWNLVDMADIRVLREPTQK”: “soluble”; “MDKTNLGELINQGKSLLDESVEGFNVGEYHKGAKDGLTVEINKAEEVFNKEDATEEEINLAKESLEGAIARFNSLLIEESTGDFNGNGKIDIGDLAMVSKNIGSTTNTSLDLNKDGSIDEYEISFINHRILNLEHHHHHH”: “soluble”; “MGSDKIHHHHHHMYEFNDTIRGTPKVTFNLKTTIGGKVLEDELNNGFGTFRTLTVSGRDVVDLEHQTTSVLGRNGEYFHNATVEVRKLEIKAKISGKDNKSMRLQYEKLNKLIVSHNQVFLSFSDEPDRNYLGIFKSKDVPEEVSNEQIIGLTFICYNPFKMSDVKTKKGTSIQNGGLFQTKPIITLNLSSPTKEIKLLHVESQKYIRLTGTYTTDEIKIDMATGKITQNGRNILGDLDMINSRYFELLPGNNTLQCANAAITAEFREVYL”: “not soluble”.
Next, “MLGIVIATHGALSDGAKDAATVIMGATENIETVNLNSGDDVQALGGQIKTAIENVQQGDGVLVMVDLLSASPYNQAVLVINELEPALQKKIFVVSGTNLPMVLEAINHQLLGTPIAEAAQAIVAQGKESVQAWDISMTSFEDEEDEDDDF”: “soluble”.
Next, “GPYLVIVEQPKQRGFRFRYGCEGPSHGGLPGASSEKGRKTYPTVKICNYEGPAKIEVDLVTHSDPPRAHAHSLVGKQCSELGICAVSVGPKDMTAQFNNLGVLHVTKKNMMGTMIQKLQRQRLRSRPQGLTEAEQRELEQEAKELKKVMDLSIVRLRFSAFLRDSDGSFSLPLKPVISQPIHDSKSPGASNLKISRMDKTAGSVRGGDEVYLLCDKVQKDDIEVRFYEDDENGWQAFGDFSPTDVHKQYAIVFRTPPYHKMKIERPVTVFLQLKRKRGGDVSDSKQFTYYPLV”: “soluble”; “MGHHHHHHSHMKNYKAIGKIGEGTFSEVMKMQSLRDGNYYACKQMKQRFESIEQVNNLREIQALRRLNPHPNILMLHEVVFDRKSGSLALICELMDMNIYELIRGRRYPLSEKKIMHYMYQLCKSLDHIHRNGIFHRDVKPENILIKQDVLKLGDFGSCRSVYSKQPYTEYISTRWYRAPECLLTDGFYTYKMDLWSAGCVFYEIASLQPLFPGVNELDQISKIHDVIGTPAQKILTKFKQSRAMNFDFPFKKGSGIPLLTTNLSPQCLSLLHAMVAYDPDERIAAHQALQHPYFQEQRKTEKRAL”: “not soluble”; “MTGRIVHFEIPFDDGDRARAFYRDAFGWAIAEIPDMDYSMVTTGPVGESGMPDEPGYINGGMMQRGEVTTPVVTVDVESIESALERIESLGGKTVTGRTPVGNMGFAAYFTDSEGNVVGLWETAR”: “soluble”.
Regarding “MGSDKIHHHHHHMLAGGKMGDMKITRHIHACVEISQGNDRIIIDPGTFGAPDLCGATILVTHNHADHVDPELLKPGMTIYAPRSVAHSIPVECHIVEHGRNFTVGSLSVEVLGSEHAMLTHSMPIAENVGYLINGRVLHPGDTFQPIKDVELALVPVNGPWVKMLDVEGYLKKFPPKRFIGIHDGIVNDRGLAINKKFLTHLGETYGSEYSPLEEGESLEI”, the “soluble on expression in E. coli” value is “not soluble”.
The same measure for “MSLFFDKVIRLNIGGKRFDTHKSTLMKFDGYFKKFLQTPGSSLVDPIFVDRSPTYFDIVLNFMRKGRADLPETLKDLKMLLGEAEYYELTELCDDCKREISRLDIGIESEPFYEIIPEPSVVARNNNNTIPNNVVEVGS”: “soluble”.
As to “MRGSHHHHHHGSDLGKKLLEAARAGQDDEVRILMANGADVNAEDTYGDTPLHLAARVGHLEIVEVLLKNGADVNALDFSGSTPLHLAAKRGHLEIVEVLLKYGADVNADDTIGSTPLHLAADTGHLEIVEVLLKYGADVNAQDKFGKTAFDISIDNGNEDLAEILQ”, the “soluble on expression in E. coli” value is recorded as “soluble”.
The same measure for “MSLTSYSYRQSSATSSFGGLGGGSVRFGPGVAFRAPSIHGGSGGRGVSVSSARFVSSSSSGAYGGGYGGVLTASDGLLAGNEKLTMQNLNDRLASYLDKVRALEAANGELEVKIRDWYQKQGPGPSRDYSHYYTTIQDLRDKILGATIENSRIVLQIDNARLAADDFRTKFETEQALRMSVEADINGLRRVLDELTLARTDLEMQIEGLKEELAYLKKNHEEEISTLRGQVGGQVSVEVDSAPGTDLAKILSDMRSQYEVMAEQNRKDAEAWFTSRTEELNREVAGHTEQLQMSRSEVTDLRRTLQGLEIELQSQLSMKAALEDTLAETEARFGAQLAHIQALISGIEAQLGDVRADSERQNQEYQRLMDIKSRLEQEIATYRSLLEGQEDHYNNLSASKEGHHHHHH”: “not soluble”; for “MSLKIAITGASGFVGSHLSSQFGGSHTLLPLGRRELSDPTKLSSLLEGVDWIINLAGAPIIAKWSESYKKVLYSSRIETTRSLLLALKECPTKPSLFTSTSAIGIYDNQGTYAEGDLALAQDFLGKLAKDWEEEALKAQDLGIRTVVFRFGVVLGKGGGMMEKLRLPFSLGLGGVIGDGKQKFSWIHLHDIAKAMEFAWSTPSLSGIYNLTAPSPTTNEAFTKLYGSLIHRPTLLPVPLWALQILFGEGAKVLSDGQAAIPERLLQAGFEFEYPTLEKALKEIISEGHHHHHH”: “soluble”.
